Assay results from PMC10644982, “Targeting amyotrophic lateral sclerosis by neutralizing seeding-competent TDP-43 in CSF” (Brain Communications, 2023).

Molecular target: the molecule itself
Test: thioflavin T aggregation kinetics + electron microscopy; synthetic substrate peptide alone at a range of concentrations, seed-free or seeded with the final product of the 15 µM reaction; 40 mM Tris-HCl, 5 mM DTT, 0.002% SDS, 50 µM ThT, 40°C, intermittent shaking; fibrils seen by negative-stain transmission electron microscopy

B1: TDP-43 peptide (352–414) (peptide)
peptide: NNQNQGNMQREPNQAFGSGNNSYSGSNSGAAIGWGSASNAGSGSGFNGGFGSSMDSKSSGWGM
notes: free N- and C-termini (H- ... -OH); also called assay substrate; SAA substrate
  binding result: binds
